According to patent publication US20140044713A1 (KONINKLIJKE NEDERLANDSE AKADEMIE VAN WETENSCHAPPEN, published 2014):

B1: USP47 (enzyme, not shown: small tags and cut ends)
chain: MVPGEENQLVPKEDVFWRCRQNIFDEMKKKFLQIENAAEEPRVLCIIQDTTNSKTVNERITLNLPASTPVRKLFEDVANKVGYINGTFDLVWGNGINTADMAPLDHTSDKSLLDANFEPGKKNFLHLTDKDGEQPQILLEDSSAGEDSVHDRFIGPLPREGSGGSTSDYVSQSYSYSSILNKSETGYVGLVNQAMTCYLNSLLQTLFMTPEFRNALYKWEFEESEEDPVTSIPYQLQRLFVLLQTSKKRAIETTDVTRSFGWDSSEAWQQHDVQELCRVMFDALEQKWKQTEQADLINELYQGKLKDYVRCLECGYEGWRIDTYLDIPLVIRPYGSSQAFASVEEALHAFIQPEILDGPNQYFCERCKKKCDARKGLRFLHFPYLLTLQLKRFDFDYTTMHRIKLNDRMTFPEELDMSTFIDVEDEKSPQTESCTDSGAENEGSCHSDQMSNDFSNDDGVDEGICLETNSGTEKISKSGLEKNSLIYELFSVMVHSGSAAGGHYYACIKSFSDEQWYSFNDQHVSRITQEDIKKTHGGSSGSRGYYSSAFASSTNAYMLIYRLKDPARNAKFLEVDEYPEHIKNLVQKERELEEQEKRQREIERNTCKIKLFCLHPTKQVMMENKLEVHKDKTLKEAVEMAYKMMDLEEVIPLDCCRLVKYDEFHDYLERSYEGEEDTPMGLLLGGVKSTYMFDLLLETRKPDQVFQSYKPGEVMVKVHVVDLKAESVAAPITVRAYLNQTVTEFKQLISKAIHLPAETMRIVLERCYNDLRLLSVSSKTLKAEGFFRSNKVFVESSETLDYQMAFADSHLWKLLDRHANTIRLFVLLPEQSPVSYSKRTAYQKAGGDSGNVDDDCERVKGPVGSLKSVEAILEESTEKLKSLSLQQQQDGDNGDSSKSTETSDFENIESPLNERDSSASVDNRELEQHIQTSDPENFQSEERSDSDVNNDRSTSSVDSDILSSSHSSDTLCNADNAQIPLANGLDSHSITSSRRTKANEGKKETWDTAEEDSGTDSEYDESGKSRGEMQYMYFKAEPYAADEGSGEGHKWLMVHVDKRITLAAFKQHLEPFVGVLSSHFKVFRVYASNQEFESVRLNETLSSFSDDNKITIRLGRALKKGEYRVKVYQLLVNEQEPCKFLLDAVFAKGMTVRQSKEELIPQLREQCGLELSIDRFRLRKKTWKNPGTVFLDYHIYEEDINISSNWEVFLEVLDGVEKMKSMSQLAVLSRRWKPSEMKLDPFQEVVLESSSVDELREKLSEISGIPLDDIEFAKGRGTFPCDISVLDIHQDLDWNPKVSTLNVWPLYICDDGAVIFYRDKTEELMELTDEQRNELMKKESSRLQKTGHRVTYSPRKEKALKIYLDGAPNKDLTQD
notes: TAP-MS bait
B2: PER2 (other, not shown: small tags and cut ends)
chain: MNGYAEFPPSPSNPTKEPVEPQPSQVPLQEDVDMSSGSSGHETNENCSTGRDSQGSDCDDSGKELGMLVEPPDARQSPDTFSLMMAKSEHNPSTSGCSSDQSSKVDTHKELIKTLKELKVHLPADKKAKGKASTLATLKYALRSVKQVKANEEYYQLLMSSEGHPCGADVPSYTVEEMESVTSEHIVKNADMFAVAVSLVSGKILYISDQVASIFHCKRDAFSDAKFVEFLAPHDVGVFHSFTSPYKLPLWSMCSGADSFTQECMEEKSFFCRVSVRKSHENEIRYHPFRMTPYLVKVRDQQGAESQLCCLLLAERVHSGYEAPRIPPEKRIFTTTHTPNCLFQDVDERAVPLLGYLPQDLIETPVLVQLHPSDRPLMLAIHKKILQSGGQPFDYSPIRFRARNGEYITLDTSWSSFINPWSRKISFIIGRHKVRVGPLNEDVFAAHPCTEEKALHPSIQELTEQIHRLLLQPVPHSGSSGYGSLGSNGSHEHLMSQTSSSDSNGHEDSRRRRAEICKNGNKTKNRSHYSHESGEQKKKSVTEMQTNPPAEKKAVPAMEKDSLGVSFPEELACKNQPTCSYQQISCLDSVIRYLESCNEAATLKRKCEFPANVPALRSSDKRKATVSPGPHAGEAEPPSRVNSRTGVGTHLTSLALPGKAESVASLTSQCSYSSTIVHVGDKKPQPELEMVEDAASGPESLDCLAGPALACGLSQEKEPFKKLGLTKEVLAAHTQKEEQSFLQKFKEIRKLSIFQSHCHYYLQERSKGQPSERTAPGLRNTSGIDSPWKKTGKNRKLKSKRVKPRDSSESTGSGGPVSARPPLVGLNATAWSPSDTSQSSCPAVPFPAPVPAAYSLPVFPAPGTVAAPPAPPHASFTVPAVPVDLQHQFAVQPPPFPAPLAPVMAFMLPSYSFPSGTPNLPQAFFPSQPQFPSHPTLTSEMASASQPEFPSRTSIPRQPCACPATRATPPSAMGRASPPLFQSRSSSPLQLNLLQLEEAPEGGTGAMGTTGATETAAVGADCKPGTSRDQQPKAPLTRDEPSDTQNSDALSTSSGLLNLLLNEDLCSASGSAASESLGSGSLGCDASPSGAGSSDTSHTSKYFGSIDSSENNHKAKMNTGMEESEHFIKCVLQDPIWLLMADADSSVMMTYQLPSRNLEAVLKEDREKLKLLQKLQPRFTESQKQELREVHQWMQTGGLPAAIDVAECVYCENKEKGNICIPYEEDIPSLGLSEVSDTKEDENGSPLNHRIEEQT
notes: TAP-MS bait
B3: FBXO18 (other, not shown: small tags and cut ends)
chain: MRRFKRKHLTAIDCQHLARSHLAVTQPFGQRWTNRDPNHGLYPKPRTKRGSRGQGSQRCIPEFFLAGKQPCTNDMAKSNSVGQDSCQDSEGDMIFPAESSCALPQEGSAGPGSPGSAPPSRKRSWSSEEESNQATGTSRWDGVSKKAPRHHLSVPCTRPREARQEAEDSTSRLSAESGETDQDAGDVGPDPIPDSYYGLLGTLPCQEALSHICSLPSEVLRHVFAFLPVEDLYWNLSLVCHLWREIISDPLFIPWKKLYHRYLMNEEQAVSKVDGILSNCGIEKESDLCVLNLIRYTATTKCSPSVDPERVLWSLRDHPLLPEAEACVRQHLPDLYAAAGGVNIWALVAAVVLLSSSVNDIQRLLFCLRRPSSTVTMPDVTETLYCIAVLLYAMREKGINISNRIHYNIFYCLYLQENSCTQATKVKEEPSVWPGKKTIQLTHEQQLILNHKMEPLQVVKIMAFAGTGKTSTLVKYAEKWSQSRFLYVTFNKSIAKQAERVFPSNVICKTFHSMAYGHIGRKYQSKKKLNLFKLTPFMVNSVLAEGKGGFIRAKLVCKTLENFFASADEELTIDHVPIWCKNSQGQRVMVEQSEKLNGVLEASRLWDNMRKLGECTEEAHQMTHDGYLKLWQLSKPSLASFDAIFVDEAQDCTPAIMNIVLSQPCGKIFVGDPHQQIYTFRGAVNALFTVPHTHVFYLTQSFRFGVEIAYVGATILDVCKRVRKKTLVGGNHQSGIRGDAKGQVALLSRTNANVFDEAVRVTEGEFPSRIHLIGGIKSFGLDRIIDIWILLQPEEERRKQNLVIKDKFIRRWVHKEGFSGFKRYVTAAEDKELEAKIAVVEKYNIRIPELVQRIEKCHIEDLDFAEYILGTVHKAKGLEFDTVHVLDDFVKVPCARHNLPQLPHFRVESFSEDEWNLLYVAVTRAKKRLIMTKSLENILTLAGEYFLQAELTSNVLKTGVVRCCVGQCNNAIPVDTVLTMKKLPITYSNRKENKGGYLCHSCAEQRIGPLAFLTASPEQVRAMERTVENIVLPRHEALLFLVF
notes: TAP-MS bait
B4: RNF43 (other, not shown: small tags and cut ends)
chain: GFGRTGLVLAAAVESERSAEQKAIIRVIPLKMDPTGKLNLTLEGVFAGVAEITPAEGKLMQSHPLYLCNASDDDNLEPGFISIVKLESPRRAPRPCLSLASKARMAGERGASAVLFDITEDRAAAEQLQQPLGLTWPVVLIWGNDAEKLMEFVYKNQKAHVRIELKEPPAWPDYDVWILMTVVGTIFVIILASVLRIRCRPRHSRPDPLQQRTAWAISQLATRRYQASCRQARGEWPDSGSSCSSAPVCAICLEEFSEGQELRVISCLHEFHRNCVDPWLHQHRTCPLCMFNITEGDSFSQSLGPSRSYQEPGRRLHLIRQHPGHAHYHLPAAYLLGPSRSAVARPPRPGPFLPSQEPGMGPRHHRFPRAAHPRAPGEQQRLAGAQHPYAQGWGLSHLQSTSQHPAACPVPLRRARPPDSSGSGESYCTERSGYLADGPASDSSSGPCHGSSSDSVVNCTDISLQGVHGSSSTFCSSLSSDFDPLVYCSPKGDPQRVDMQPSVTSRPRSLDSVVPTGETQVSSHVHYHRHRHHHYKKRFQWHGRKPGPETGVPQSRPPIPRTQPQPEPPSPDQQVTRSNSAAPSGRLSNPQCPRALPEPAPGPVDASSICPSTSSLFNLQKSSLSARHPQRKRRGGPSEPTPGSRPQDATVHPACQIFPHYTPSVAYPWSPEAHPLICGPPGLDKRLLPETPGPCYSNSQPVWLCLTPRQPLEPHPPGEGPSEWSSDTAEGRPCPYPHCQVLSAQPGSEEELEELCEQAV
notes: TAP-MS bait

target: T1, LRP6 (endogenous) (human, UniProt O75581 20-1613); test: TAP + mass spectrometry, HEK293 cells
T1 construct: whole, on cells
T1 sequence (O75581 20-1613): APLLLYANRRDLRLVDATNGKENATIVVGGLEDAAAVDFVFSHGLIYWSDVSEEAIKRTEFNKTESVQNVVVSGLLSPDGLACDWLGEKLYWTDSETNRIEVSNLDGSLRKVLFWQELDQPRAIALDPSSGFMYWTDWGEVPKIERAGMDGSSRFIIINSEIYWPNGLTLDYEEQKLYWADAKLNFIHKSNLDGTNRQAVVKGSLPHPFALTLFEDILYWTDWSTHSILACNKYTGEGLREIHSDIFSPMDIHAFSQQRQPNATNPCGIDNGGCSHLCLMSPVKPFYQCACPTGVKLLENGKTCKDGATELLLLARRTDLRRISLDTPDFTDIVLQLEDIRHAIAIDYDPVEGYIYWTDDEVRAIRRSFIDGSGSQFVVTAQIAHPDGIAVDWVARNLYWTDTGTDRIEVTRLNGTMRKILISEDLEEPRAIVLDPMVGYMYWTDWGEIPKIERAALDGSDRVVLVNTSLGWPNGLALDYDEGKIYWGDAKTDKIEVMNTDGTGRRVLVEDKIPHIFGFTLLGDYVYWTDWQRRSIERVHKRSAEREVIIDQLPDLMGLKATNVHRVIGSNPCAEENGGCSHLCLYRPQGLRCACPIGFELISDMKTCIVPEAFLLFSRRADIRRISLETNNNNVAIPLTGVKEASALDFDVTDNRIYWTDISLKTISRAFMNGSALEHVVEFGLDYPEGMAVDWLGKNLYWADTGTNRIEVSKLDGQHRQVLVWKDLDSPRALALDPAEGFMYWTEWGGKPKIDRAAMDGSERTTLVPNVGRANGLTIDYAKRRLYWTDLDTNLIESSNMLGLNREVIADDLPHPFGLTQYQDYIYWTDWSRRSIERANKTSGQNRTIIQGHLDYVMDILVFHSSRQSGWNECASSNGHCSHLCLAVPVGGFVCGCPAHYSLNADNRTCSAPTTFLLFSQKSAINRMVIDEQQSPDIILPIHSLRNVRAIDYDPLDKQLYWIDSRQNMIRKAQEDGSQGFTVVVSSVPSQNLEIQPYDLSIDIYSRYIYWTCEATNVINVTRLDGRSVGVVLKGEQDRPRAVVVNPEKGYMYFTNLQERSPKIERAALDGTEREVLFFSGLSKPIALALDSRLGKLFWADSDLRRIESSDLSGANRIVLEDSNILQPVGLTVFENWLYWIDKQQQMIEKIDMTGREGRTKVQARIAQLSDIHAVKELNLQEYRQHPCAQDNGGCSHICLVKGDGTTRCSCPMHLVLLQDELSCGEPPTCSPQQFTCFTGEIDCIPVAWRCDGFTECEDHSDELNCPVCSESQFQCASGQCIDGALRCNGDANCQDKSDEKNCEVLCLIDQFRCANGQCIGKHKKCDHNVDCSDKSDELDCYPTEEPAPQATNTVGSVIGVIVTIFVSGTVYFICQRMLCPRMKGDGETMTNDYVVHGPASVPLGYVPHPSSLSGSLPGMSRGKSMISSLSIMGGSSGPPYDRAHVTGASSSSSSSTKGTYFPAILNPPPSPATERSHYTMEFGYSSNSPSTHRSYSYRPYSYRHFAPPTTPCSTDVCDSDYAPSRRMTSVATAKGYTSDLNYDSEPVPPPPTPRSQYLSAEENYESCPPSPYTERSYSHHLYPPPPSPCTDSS

Binding result, no binding:
B1, B2, B3

target: T2, LRP5 (endogenous) (human, UniProt O75197 32-1615); test: TAP + mass spectrometry, HEK293 cells
T2 construct: whole, on cells
T2 sequence (O75197 32-1615): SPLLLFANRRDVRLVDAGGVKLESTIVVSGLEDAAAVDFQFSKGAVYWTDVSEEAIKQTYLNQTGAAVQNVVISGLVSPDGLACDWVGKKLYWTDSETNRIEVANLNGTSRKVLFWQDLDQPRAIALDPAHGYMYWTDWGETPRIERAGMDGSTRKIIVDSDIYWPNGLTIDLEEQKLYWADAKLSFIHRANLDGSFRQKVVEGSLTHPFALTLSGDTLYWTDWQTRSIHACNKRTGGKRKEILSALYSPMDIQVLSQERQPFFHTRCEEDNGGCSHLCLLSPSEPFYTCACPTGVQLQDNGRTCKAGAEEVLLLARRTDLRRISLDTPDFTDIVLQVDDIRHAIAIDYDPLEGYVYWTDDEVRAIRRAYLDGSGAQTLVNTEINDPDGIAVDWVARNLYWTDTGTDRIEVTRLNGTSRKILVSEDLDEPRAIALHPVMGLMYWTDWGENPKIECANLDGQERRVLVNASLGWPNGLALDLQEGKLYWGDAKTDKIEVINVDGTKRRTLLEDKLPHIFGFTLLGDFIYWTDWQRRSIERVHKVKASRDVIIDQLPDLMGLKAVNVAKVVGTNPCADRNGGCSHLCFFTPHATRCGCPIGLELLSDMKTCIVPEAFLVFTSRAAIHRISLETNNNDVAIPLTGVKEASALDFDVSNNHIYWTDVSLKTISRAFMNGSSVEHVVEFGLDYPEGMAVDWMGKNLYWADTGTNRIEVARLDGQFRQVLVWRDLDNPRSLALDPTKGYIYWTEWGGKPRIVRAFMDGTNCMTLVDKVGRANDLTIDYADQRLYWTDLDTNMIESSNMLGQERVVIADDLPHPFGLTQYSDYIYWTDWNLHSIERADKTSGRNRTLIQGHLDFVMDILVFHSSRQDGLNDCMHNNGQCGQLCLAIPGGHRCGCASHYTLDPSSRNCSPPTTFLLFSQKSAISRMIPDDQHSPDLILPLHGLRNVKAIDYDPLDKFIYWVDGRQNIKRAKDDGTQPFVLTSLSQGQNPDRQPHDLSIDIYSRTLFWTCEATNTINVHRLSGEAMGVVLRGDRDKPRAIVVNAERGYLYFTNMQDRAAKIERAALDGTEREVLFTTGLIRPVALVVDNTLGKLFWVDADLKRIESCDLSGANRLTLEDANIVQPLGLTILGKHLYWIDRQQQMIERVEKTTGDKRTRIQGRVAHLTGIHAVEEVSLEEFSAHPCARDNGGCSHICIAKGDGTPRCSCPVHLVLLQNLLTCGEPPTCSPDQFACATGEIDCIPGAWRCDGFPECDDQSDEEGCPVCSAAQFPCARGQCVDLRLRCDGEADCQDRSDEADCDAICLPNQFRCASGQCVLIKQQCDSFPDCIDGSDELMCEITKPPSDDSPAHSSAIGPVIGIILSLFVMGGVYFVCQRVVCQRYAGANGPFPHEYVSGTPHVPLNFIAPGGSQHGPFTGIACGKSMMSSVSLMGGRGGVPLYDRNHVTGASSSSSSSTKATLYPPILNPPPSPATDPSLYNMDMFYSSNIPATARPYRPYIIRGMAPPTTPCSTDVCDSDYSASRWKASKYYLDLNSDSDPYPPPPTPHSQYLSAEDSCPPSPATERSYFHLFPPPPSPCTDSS

Binding result, no binding:
B1, B4, B2, B3
